Measured values as given in publication PMC8059821.

Target: hACE2-NN-Fc 5mut (human) (UniProt Q9BYF1)
Assay: SPR

With “soluble monomeric SARS2-RBD (from UniProt P0DTC2) (domain or fragment)” the Kd was 5.45 nM.
